The target of test [1] is free SUMO1 (UniProt P63165). Put plainly: pull-down (IP: TEX264-GFP) with immunoblot, quantified band ratio. To be noted: purified GFP-tagged TEX264 incubated with free SUMO1; parent: 1. (A western blot detects proteins with antibodies after separation by electrophoresis.)
The target of test [2] is TEX264^SIM2*-FLAG (SIM2-mutated variant) (UniProt Q9Y6I9). Put plainly: co-IP; tandem affinity purification from ΔTEX264 HEK293 co-expressing FLAG-tagged TEX264 and HA-SUMO1: FLAG IP under native conditions, then anti-HA IP after boiling in 1% SDS; eluates probed for TOP1.
Chain of UniProt Q9Y6I9 (Q9Y6I9 whole entry, stated change not applied): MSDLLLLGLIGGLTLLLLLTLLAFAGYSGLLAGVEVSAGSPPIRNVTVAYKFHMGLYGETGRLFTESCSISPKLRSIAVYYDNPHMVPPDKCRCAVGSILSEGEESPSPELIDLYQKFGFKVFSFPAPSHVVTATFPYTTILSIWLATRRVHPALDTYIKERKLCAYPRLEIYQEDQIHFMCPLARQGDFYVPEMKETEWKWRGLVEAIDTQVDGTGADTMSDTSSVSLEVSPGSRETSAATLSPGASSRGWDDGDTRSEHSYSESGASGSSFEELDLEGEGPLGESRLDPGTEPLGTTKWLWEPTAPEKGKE

Chain of UniProt P63165 (P63165 1-97): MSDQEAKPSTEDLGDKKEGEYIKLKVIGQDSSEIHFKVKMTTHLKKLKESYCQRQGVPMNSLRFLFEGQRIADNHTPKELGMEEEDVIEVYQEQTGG

On to “GFP-tagged TEX264, wild type (from UniProt Q9Y6I9) SIM1*”, for which the ratio to parent in test [1] was 0.25. In the case of “GFP-tagged TEX264, wild type (from UniProt Q9Y6I9) SIM2*”, in test [1], the ratio to parent amounted to 0. As for “SUMO1-modified TOP1 (HA-SUMO1 conjugated to endogenous TOP1) (from UniProt P11387 1-765; P63165 1-97)”, the percent less co-immunoprecipitated than with TEX264^WT in test [2] came out at 70%.
